According to US20250345445A1, “ANTIBODY-DRUG CONJUGATE AND USE THEREOF” (CSPC MEGALITH BIOPHARMACEUTICAL CO., LTD., priority 2021, published 2025):
Positions count from the first letter of the chain named. Like-named read-outs stand apart in the source and are kept apart here. Marks after values point to notes of the source that are not given here. *1 amine or outer side, *2 acyl side, *3 side chain or, on linkers, in order; H or OH if unused. Where a SMILES comes first, the peptide text is derived from it. [ ]: non-standard residue; d: D form. The star is where a group is joined. Exatecan = CC[C@@]1(O)C(=O)OCc2c1cc1n(c2=O)Cc2c-1nc1cc(F)c(C)c3c1c2[C@@H](N*)CC3; Hexanoyl(6-maleimido) = O=C1C=CC(=O)N1CCCCCC(=O)*; X1 = C[C@@H](OCN[*:1])C(=O)[*:2]; X2 = O=C(COCCOCN[*:1])[*:2]

What was measured:
[1] = more active than the common chemotherapy drug irinotecan; cited from earlier work
[2] = Assay 8: stability of linker-drug compounds; assay type: physicochemical; conditions: high temperature, high humidity, illumination or 0.5% BSA-PBS; LC-MS/MS; Deruxtecan also studied
Procedure: Different linker-drug compounds such as Deruxtecan, JSSW-001, and ZW-002 were studied under high temperature (40° C., 60° C.), high humidity (25° C./75% RH and 25° C./92.5% RH), illumination (illuminance 4500 Lux, near-UV energy […]), or 0.5% BSA-PBS conditions. Samples were collected at different times after exposure to these conditions, and the concentration changes of the linker-drug compounds in the samples were detected using the LC-MS/MS method.

[3] = tested on: human lung adenocarcinoma PC9-GR (gefitinib-resistant cell) xenograft tumour; assay: Assay 3: efficacy of patritumab-ADC on PC9-GR xenograft tumour; assay type: in vivo, NU/NU mice; conditions: 3 mg/kg i.v./qw*4 w
[4] = tested on: human colon cancer SW620 xenograft tumour; assay: Assay 15: efficacy of patritumab-ADC on SW620 xenograft tumour; assay type: in vivo, NU/NU mice; conditions: 7 mg/kg i.v./single administration
Source text: The assay was terminated on day 26 after the administration. The inhibition effects of patritumab-DXD ADC (DAR=7.3) and patritumab-JSSW-001 ADC (DAR=7.36) on human colon cancer SW620 xenograft tumour in nude mice were compared.

[5] = tested on: human colorectal cancer DiFi xenograft tumour; assay: Assay 16: efficacy of patritumab-ADC on DiFi xenograft tumour; assay type: in vivo, NU/NU mice; conditions: Table 29: 10 mg/kg i.v./qw*3w
Source text: The assay was terminated on day 28 after the administration.

[6] = Phase Ib, cited from earlier work
[7] = early data published by the company; cited from earlier work
EGFR on MDA-MB-468 cells [8] = target: T1, EGFR on MDA-MB-468 cells (human, UniProt P00533 25-1210); assay: flow cytometry on MDA-MB-468 cells, pH 6.0; ratio of EC50 to SWY2110
T1 construct: whole, on cells; also called epidermal growth factor receptor; HER1

EGFR on MDA-MB-468 cells [9] = target: T1, EGFR on MDA-MB-468 cells; assay: flow cytometry on MDA-MB-468 cells, pH 7.4; ratio of EC50 to SWY2110
EGFR on MDA-MB-468 cells [10] = target: T1, EGFR on MDA-MB-468 cells; assay: flow cytometry on MDA-MB-468 cells, antibody diluted in PBS pH 6.0, FITC anti-human Fc
EGFR on MDA-MB-468 cells [11] = target: T1, EGFR on MDA-MB-468 cells; assay: flow cytometry on MDA-MB-468 cells, antibody diluted in PBS pH 7.4, FITC anti-human Fc

Molecule: CC[C@@]1(O)C(=O)OCc2c1cc1n(c2=O)Cc2c-1nc1cc(F)c(C)c3c1c2[C@@H](NC(=O)CO)CC3 [DXd]
- activity relative to irinotecan [1]: 10 times

Molecule: CC[C@@]1(O)C(=O)OCc2c1cc1n(c2=O)Cc2c-1nc1cc(F)c(C)c3c1c2[C@@H](NC(=O)COCCOCNC(=O)CNC(=O)[C@H](Cc1ccccc1)NC(=O)CNC(=O)CNC(=O)CCCCCN1C(=O)C=CC1=O)CC3 [ZW-002, N—((S)-13-benzyl-1-(((1S,9S)-9-ethyl-5-fluoro-9-hydroxy-4-methyl-10,13-dioxo-2,3,9,10,13,15-hexahydro-1H,12H-benzo[de]pyrano[3′,4′:6,7]indolizino[1,2-b]quinolin-1-yl)amino)-1,9,12,15,18-pentaoxo-3,6-dioxa-8,11,14,17-tetraazanonadecan-19-yl)-6-(2,5-dioxo-2,5-dihydro-1H-pyrrol-1-yl)hexanamide] ({Hexanoyl(6-maleimido)}-GGFG[X2]-Exatecan)
- stability of linker-drug compound [2]: better stability

Molecule: CC[C@@]1(O)C(=O)OCc2c1cc1n(c2=O)Cc2c-1nc1cc(F)c(C)c3c1c2[C@@H](NC(=O)[C@@H](C)OCNC(=O)CNC(=O)[C@H](Cc1ccccc1)NC(=O)CNC(=O)CNC(=O)CCCCCN1C(=O)C=CC1=O)CC3 [JSSW-001, N-((2R,10S)-10-benzyl-1-(((1S,9S)-9-ethyl-5-fluoro-9-hydroxy-4-methyl-10,13-dioxo-2,3,9,10,13,15-hexahydro-1H,12H-benzo[de]pyrano[3′,4′:6,7]indolizino[1,2-b]quinolin-1-yl)amino)-2-methyl-1,6,9,12,15-pentaoxo-3-oxa-5,8,11,14-tetraazahexadecan-16-yl)-6-(2,5-dioxo-2,5-dihydro-1H-pyrrol-1-yl)hexanamide] ({Hexanoyl(6-maleimido)}-GGFG[X1]-Exatecan)
- stability of linker-drug compound [2]: better stability

Molecule: patritumab-DXD ADC (DAR = 7.3): patritumab antibody conjugated with commercially available Deruxtecan [reference compound]
- TGI(%) Day 28 [3]: 59.5%
- Tumour Volume ([3]; 28 days after administration): 373.4 ± 102.8** mm^3
- TGI(%) Day 21 [4]: 73.2%
- Tumour Volume ([4]; 21 days after administration): 461.3 ± 278.1*** mm^3
- Tumour Volume ([5]; 28 days after administration): 512.5 ± 470.8* mm^3
- TGI(%) Day 28 [5]: 54.0%

Molecule: MRG003
- objective response rate (ORR) ([6]; patients with nasopharyngeal carcinoma (4/9)): 44%
- objective response rate (ORR) ([6]; patients with non-small cell lung cancer (4/10)): 40%

B1: BA3021 (conjugate, chains of the INN, looked up)
VH: EVQLVQSGAEVKKPGESLRISCKGSGYTFTEYTMHWVRQAPGQGLEWMGGINTNNGGTGYNQKFKGRVTISADKSISTAYLQWSSLKASDTAMYYCAHGSLYSYGNSYFDYWGQGTLVTVSS
VL: AIQLTQSPSSLSASVGDRVTITCSATSSVSYMHWYLQKPGQSPQLLIYGTSNLASGVPDRFSGSGSGTDFTLKISRVEAEDVGVYYCQQRSSYPFTFGQGTKVEIK
modifications: vedotin (MMAE) payload
- target-related toxicity [7]: no obvious target-related toxicity

B2: EGFR antibody SWY2111 (antibody, human IgG1, kappa, V domains shown)
VH: QVQLQESGPGLVKPSETLSLTCTVSGFSLSDYDVHWVRQAPGKGLEWLGVIWSGGNTDYNTPFTSRLTISVDTSKNQFSLKLSSVTAADTAVYYCARALDDYDYEFAYWGQGTLVTVSS
VL: EIVLTQSPDFQSVTPKEKVTITCRASQSIGTNIHWYQQKPDQSPKLLIKYASESISGIPSRFSGSGSGTDFTLTINSLEAEDAATYYCQQNNEWPTSFGQGTKLEIKR
- fold change of affinity compared to SWY2110 (EGFR on MDA-MB-468 cells [8]): 1.2 to 1.3 times
- fold decrease of affinity compared to SWY2110 (EGFR on MDA-MB-468 cells [9]): 3 times
- EC50 (EGFR on MDA-MB-468 cells [10]): 0.6 nM
- EC50 (EGFR on MDA-MB-468 cells [11]): 1.45 nM

B3: EGFR antibody SWY2112 (antibody, human IgG1, kappa, V domains shown)
VH: B2 VH with D31E
VL: B2 VL
- fold change of affinity compared to SWY2110 (EGFR on MDA-MB-468 cells [8]): 1.2 to 1.3 times
- EC50 (EGFR on MDA-MB-468 cells [10]): 0.67 nM
- EC50 (EGFR on MDA-MB-468 cells [11]): 2.35 nM

B4: EGFR antibody SWY2113 (antibody, human IgG1, kappa, V domains shown)
VH: B2 VH with D31H
VL: B2 VL
- fold decrease of affinity compared to SWY2110 (EGFR on MDA-MB-468 cells [8]): 6.6 times
- fold decrease of affinity compared to SWY2110 (EGFR on MDA-MB-468 cells [9]): 3 to 9.7 times
- EC50 (EGFR on MDA-MB-468 cells [10]): 3.39 nM
- EC50 (EGFR on MDA-MB-468 cells [11]): 4.76 nM

B5: BA3011 (conjugate, chains of the INN, looked up)
VH: EVQLVQSGAEVKKPGATVKISCKVSGYSFWGATMNWIRQPPGKGLEWIGLIKPSNGGTSYNQKFKGRVTISADKSISTAYLQWSSLKASDTAMYYCAHGHYESYEAMDYWGQGTLVTVSS
VL: DIQMTQSPSSLSASVGDRVTITCKASQDVVSAVAWYQQKPGQAPRLLIYWQDTRHTGVPSRFSGSGSGTEFTLTISSLQPDDFATYYCQEHFSPPLTFGQGTKVEIK
modifications: vedotin (MMAE) payload
- target-related toxicity [7]: no obvious target-related toxicity
